Assay results: US20150166606A1 (RA PHARMACEUTICALS, published 2015)
Read-outs that look alike come from different tables or passages of the source. Bridge positions count the residues as written; N and C are the ends. Square brackets hold non-standard residues; d marks the D form. Ends that are not written are not given here. * marks the point of attachment. mXylyl = xylyl linker from dibromoxylene joining the two cysteines; des‑NH2 = missing amino-terminal amine group; Phg = N[C@H](C(=O)O)c1ccccc1; Tle = CC(C)(C)[C@H](N)C(=O)O; Heptanoyl = CCCCCCC(=O)*

T1: Factor VIIa (Enzyme Research Laboratories) (human, UniProt P08709 61-466)
T1 sequence (looked up): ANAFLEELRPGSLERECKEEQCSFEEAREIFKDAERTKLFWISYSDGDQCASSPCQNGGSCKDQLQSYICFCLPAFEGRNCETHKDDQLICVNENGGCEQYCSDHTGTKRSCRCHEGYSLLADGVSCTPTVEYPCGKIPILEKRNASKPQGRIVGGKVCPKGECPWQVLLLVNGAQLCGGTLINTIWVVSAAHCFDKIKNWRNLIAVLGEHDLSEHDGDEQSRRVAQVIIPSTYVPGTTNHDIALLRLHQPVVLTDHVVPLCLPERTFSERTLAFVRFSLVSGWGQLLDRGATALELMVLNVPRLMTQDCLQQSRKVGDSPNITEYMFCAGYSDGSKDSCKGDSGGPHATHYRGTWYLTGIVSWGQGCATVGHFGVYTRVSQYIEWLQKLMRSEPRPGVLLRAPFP

T2: Factor XIIa (Enzyme Research Laboratories) (human, UniProt P00748 20-615, limits assumed)
T2 sequence (looked up): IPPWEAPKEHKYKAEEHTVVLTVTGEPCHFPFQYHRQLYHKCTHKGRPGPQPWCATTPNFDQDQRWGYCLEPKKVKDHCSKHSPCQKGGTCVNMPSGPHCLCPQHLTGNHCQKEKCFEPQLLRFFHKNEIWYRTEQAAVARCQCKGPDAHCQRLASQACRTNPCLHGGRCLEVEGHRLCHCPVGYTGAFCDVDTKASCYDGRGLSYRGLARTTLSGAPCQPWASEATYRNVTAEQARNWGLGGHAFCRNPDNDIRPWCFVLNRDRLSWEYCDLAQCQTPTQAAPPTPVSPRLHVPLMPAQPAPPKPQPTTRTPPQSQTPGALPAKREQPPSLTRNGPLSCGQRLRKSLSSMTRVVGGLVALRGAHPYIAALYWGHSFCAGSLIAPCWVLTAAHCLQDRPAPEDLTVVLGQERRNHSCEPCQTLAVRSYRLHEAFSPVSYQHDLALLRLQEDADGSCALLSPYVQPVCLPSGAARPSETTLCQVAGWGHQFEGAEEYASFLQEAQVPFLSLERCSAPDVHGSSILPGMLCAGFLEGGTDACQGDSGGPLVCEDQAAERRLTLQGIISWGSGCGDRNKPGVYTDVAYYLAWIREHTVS

T3: tissue kallikrein KLK13 (R&D Systems) (human, UniProt Q9UKR3 17-277, limits assumed)
T3 sequence (looked up): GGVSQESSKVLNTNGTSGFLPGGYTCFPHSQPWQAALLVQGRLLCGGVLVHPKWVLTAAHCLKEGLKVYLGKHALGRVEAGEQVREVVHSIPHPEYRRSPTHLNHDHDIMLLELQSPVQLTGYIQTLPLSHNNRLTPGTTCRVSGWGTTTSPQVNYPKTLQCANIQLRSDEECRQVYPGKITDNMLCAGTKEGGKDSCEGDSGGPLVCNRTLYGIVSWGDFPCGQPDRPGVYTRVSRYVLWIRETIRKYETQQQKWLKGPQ

B1: R2047 (peptide)
peptide: Ac-CASICRV-NH2
modifications: linker 1-5 via mXylyl; not fully specified (residue 2); printed as [mXylyl(1,5)]Ac-C-a-SICRV-NH2
B2: R2051 (peptide)
peptide: {des‑NH2}-CESICRV-NH2
modifications: linker 1-5 via mXylyl; not fully specified (residue 1); printed as [mXylyl(1,5)](des-NH2)C-ESICRV-NH2

Key:
Test in all cases: cell-based or functional assay
[1] = biological target: T4, Activated human plasma kallikrein (Enzyme Research Laboratories, HPKa 1303) (human, UniProt P03952 20-638)
T4 sequence (P03952 20-638 limits assumed): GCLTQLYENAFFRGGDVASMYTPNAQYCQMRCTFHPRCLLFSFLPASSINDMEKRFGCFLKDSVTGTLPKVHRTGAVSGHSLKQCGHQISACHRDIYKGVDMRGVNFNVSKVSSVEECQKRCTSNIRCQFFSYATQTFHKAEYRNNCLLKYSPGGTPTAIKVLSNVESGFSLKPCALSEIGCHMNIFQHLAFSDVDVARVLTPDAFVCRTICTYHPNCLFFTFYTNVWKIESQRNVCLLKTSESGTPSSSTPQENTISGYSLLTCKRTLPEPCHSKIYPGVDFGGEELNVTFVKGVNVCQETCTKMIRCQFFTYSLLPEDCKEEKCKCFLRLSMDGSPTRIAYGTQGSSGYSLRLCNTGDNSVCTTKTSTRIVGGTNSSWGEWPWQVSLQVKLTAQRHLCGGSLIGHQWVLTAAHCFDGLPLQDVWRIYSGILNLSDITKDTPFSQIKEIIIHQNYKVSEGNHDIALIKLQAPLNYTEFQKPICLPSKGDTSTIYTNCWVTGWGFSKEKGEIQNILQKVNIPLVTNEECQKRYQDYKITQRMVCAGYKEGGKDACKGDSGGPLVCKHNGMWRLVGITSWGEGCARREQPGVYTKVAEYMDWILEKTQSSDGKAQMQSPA

[2] = biological target: T4, Activated human plasma kallikrein …; remark: listed apart in the source
[3] = biological target: Factor XIa (Enzyme Research Laboratories) (human, UniProt P03951 19-625)
Sequence of Factor XIa (Enzyme Research Laboratories) (P03951 19-625 limits assumed): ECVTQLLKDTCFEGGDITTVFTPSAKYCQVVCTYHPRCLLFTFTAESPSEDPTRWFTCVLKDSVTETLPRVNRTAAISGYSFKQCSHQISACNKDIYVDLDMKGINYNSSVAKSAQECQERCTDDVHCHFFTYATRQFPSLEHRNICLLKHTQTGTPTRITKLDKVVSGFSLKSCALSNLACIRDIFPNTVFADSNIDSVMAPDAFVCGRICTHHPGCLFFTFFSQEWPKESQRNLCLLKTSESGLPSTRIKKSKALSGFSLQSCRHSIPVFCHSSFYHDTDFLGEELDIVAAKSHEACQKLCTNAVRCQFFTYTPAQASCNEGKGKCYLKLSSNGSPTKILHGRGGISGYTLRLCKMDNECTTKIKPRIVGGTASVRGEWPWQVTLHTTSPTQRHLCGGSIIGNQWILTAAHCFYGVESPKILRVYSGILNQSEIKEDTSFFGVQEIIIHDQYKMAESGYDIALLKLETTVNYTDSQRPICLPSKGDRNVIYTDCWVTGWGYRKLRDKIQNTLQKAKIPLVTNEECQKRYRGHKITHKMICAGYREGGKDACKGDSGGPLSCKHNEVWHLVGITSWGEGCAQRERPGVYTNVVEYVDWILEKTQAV

[4] = biological target: Factor Xa (Enzyme Research Laboratories) (human, UniProt P00742 41-488, limits assumed)
Sequence of Factor Xa (Enzyme Research Laboratories) (P00742 41-488 limits assumed): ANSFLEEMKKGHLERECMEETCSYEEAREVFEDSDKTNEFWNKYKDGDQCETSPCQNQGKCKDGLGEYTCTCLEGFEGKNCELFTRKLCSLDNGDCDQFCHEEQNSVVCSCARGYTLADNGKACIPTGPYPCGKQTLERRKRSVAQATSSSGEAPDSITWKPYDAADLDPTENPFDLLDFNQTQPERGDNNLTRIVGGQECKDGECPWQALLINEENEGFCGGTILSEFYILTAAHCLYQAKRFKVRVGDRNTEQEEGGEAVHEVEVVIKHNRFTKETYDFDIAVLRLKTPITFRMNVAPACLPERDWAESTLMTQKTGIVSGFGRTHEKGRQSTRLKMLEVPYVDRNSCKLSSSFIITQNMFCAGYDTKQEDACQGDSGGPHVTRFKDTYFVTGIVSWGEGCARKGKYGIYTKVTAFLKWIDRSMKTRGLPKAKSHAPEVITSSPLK

[5] = biological target: mouse plasma kallikrein (R&D Systems) (mouse, UniProt P26262 20-638)
Sequence of mouse plasma kallikrein (R&D Systems) (P26262 20-638 limits assumed): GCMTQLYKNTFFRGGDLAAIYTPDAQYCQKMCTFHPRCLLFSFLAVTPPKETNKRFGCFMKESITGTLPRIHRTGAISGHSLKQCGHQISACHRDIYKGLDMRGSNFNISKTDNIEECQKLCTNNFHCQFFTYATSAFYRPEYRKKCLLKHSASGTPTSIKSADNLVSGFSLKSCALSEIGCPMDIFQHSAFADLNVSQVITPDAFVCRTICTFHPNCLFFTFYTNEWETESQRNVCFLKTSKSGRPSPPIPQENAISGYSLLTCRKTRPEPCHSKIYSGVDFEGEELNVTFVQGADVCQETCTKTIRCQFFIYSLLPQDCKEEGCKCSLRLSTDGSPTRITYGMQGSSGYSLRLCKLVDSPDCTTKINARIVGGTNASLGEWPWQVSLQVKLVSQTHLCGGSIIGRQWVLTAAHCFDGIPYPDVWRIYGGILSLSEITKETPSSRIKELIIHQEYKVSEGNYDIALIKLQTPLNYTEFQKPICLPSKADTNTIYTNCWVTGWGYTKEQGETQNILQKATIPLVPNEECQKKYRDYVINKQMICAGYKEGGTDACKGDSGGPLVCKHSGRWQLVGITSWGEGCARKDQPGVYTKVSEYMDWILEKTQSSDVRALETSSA

[6] = biological target: T4, Activated human plasma kallikrein …; remark: listed apart in the source
[7] = biological target: T1, Factor VIIa (Enzyme Research …)
[8] = biological target: T2, Factor XIIa (Enzyme Research …)
[9] = biological target: thrombin (Enzyme Research Laboratories) (human, UniProt P00734 328-622)
[10] = biological target: plasmin (Enzyme Research Laboratories) (human, UniProt P00747 97-810, limits assumed)
Sequence of plasmin (Enzyme Research Laboratories) (P00747 97-810 limits assumed): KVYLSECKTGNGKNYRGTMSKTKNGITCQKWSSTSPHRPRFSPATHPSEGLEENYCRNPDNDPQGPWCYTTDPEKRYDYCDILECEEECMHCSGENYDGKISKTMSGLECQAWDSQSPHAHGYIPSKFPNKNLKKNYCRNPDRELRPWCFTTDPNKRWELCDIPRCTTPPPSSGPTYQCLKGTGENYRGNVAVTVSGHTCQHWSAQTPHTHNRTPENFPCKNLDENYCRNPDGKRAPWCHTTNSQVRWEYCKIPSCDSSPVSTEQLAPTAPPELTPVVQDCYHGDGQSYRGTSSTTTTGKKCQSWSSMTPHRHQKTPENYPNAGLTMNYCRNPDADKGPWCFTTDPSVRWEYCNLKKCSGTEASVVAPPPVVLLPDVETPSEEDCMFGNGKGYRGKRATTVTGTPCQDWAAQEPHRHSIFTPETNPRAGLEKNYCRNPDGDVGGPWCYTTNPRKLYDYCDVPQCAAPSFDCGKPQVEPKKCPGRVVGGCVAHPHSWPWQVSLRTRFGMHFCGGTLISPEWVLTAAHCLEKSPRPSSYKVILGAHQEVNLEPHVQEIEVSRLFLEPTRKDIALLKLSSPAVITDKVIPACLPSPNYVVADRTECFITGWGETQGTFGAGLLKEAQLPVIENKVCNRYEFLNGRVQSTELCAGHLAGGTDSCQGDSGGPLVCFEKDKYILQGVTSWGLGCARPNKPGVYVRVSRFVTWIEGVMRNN

[11] = biological target: T3, tissue kallikrein KLK13 (R&D Systems)
[12] = biological target: T4, Activated human plasma kallikrein …; remark: listed apart in the source

| Binder | Avg. IC50 [1] [nM] | Avg. IC50 [2] [nM] | Factor XIa IC50 [3] [nM] | Factor Xa IC50 [4] [nM] | Mouse Kallikrein IC50 [5] [nM] | Human Kallikrein IC50 [6] [nM] | Factor VIIa IC50 [7] [nM] | Factor XIIa IC50 [8] [nM] | Thrombin IC50 [9] [nM] | Plasmin IC50 [10] [nM] | KLK13 IC50 [11] [nM] | Avg. IC50 [12] [nM] |
| --- | --- | --- | --- | --- | --- | --- | --- | --- | --- | --- | --- | --- |
| MCNYWSPWTECSR-NH2 (linker 2-11 via mXylyl) [R2003] | 3.1 | 3.1 | – | – | – | – | – | – | – | – | – | – |
| MCNYWSPWTECSA-NH2 (cysteine pairing not given here) [R2104] | – | 3.4 | > 5000 | > 100000 | 11.2 | 3.4 | > 100000 | > 100000 | > 100000 | 5800 | > 100000 | – |
| MCESICRVLRYSE-NH2 (linker 2-6 via mXylyl) [R2004] | 0.501 | – | – | – | – | – | – | – | – | – | – | 0.501 |
| Ac-CAS[Phg]CR[Tle]-NH2 (linker 1-5 via mXylyl) [R2036] | – | – | > 4800 | > 7000 | 12.8 | 6.4 | > 100000 | > 100000 | > 100000 | > 19500 | > 100000 | 6.4 |
| Heptanoyl-CESICRV-NH2 (linker 1-5 via mXylyl) [R2041] | – | – | > 5400 | > 7000 | 191 | 24.2 | > 17900 | > 100000 | > 100000 | > 100000 | > 100000 | 24.2 |
| B1 | – | – | > 13800 | > 100000 | 36.7 | 32.3 | > 100000 | > 100000 | > 100000 | > 100000 | > 100000 | 17.4 |
| B2 | – | – | > 8300 | > 100000 | 19.3 | 12.9 | > 100000 | > 100000 | > 100000 | > 100000 | > 100000 | 12.9 |
